B1: p75^NTR TMD-AraTM chimera, wild type (MBP - p75^NTR TMD - AraC) [human] / itself (parent)
chain: NLIPVYCSILAAVVVGLVAYIAFKRW

Variants of: B1
Test: AraTM assay
Settings: with itself, 100% = WT TMD without drug, read off a plot

Variant: NLIPAYCSILAAVVVGLVAYIAFKRW
- percent of parent (7.5 µM Div17E5): 92%
- percent of parent (15 µM Div17E5): 93%
- percent of parent (20 µM Div17E5): 95%
- percent of parent (50 µM Div17E5): 92%
- percent of parent (no drug (0 µM Div17E5)): 97%

Variant: NLAPVYCSILAAVVVGLVAYIAFKRW
- percent of parent (7.5 µM Div17E5): 97%
- percent of parent (15 µM Div17E5): 97%
- percent of parent (20 µM Div17E5): 97%
- percent of parent (50 µM Div17E5): 100%
- percent of parent (no drug (0 µM Div17E5)): 100%

Variant: NLIGVYCSILAAVVVGLVAYIAFKRW
- percent of parent (7.5 µM Div17E5): 68%
- percent of parent (15 µM Div17E5): 65%
- percent of parent (20 µM Div17E5): 55%
- percent of parent (50 µM Div17E5): 57%
- percent of parent (no drug (0 µM Div17E5)): 100%

Source: article PMC12514245, “Impaired migration and lung invasion of human melanoma by a novel small molecule targeting the transmembrane domain of death receptor p75^NTR” (EMBO Molecular Medicine, 2025)
